Measurements taken from article PMC12867984, “Functional assessment of protein variants in structured domains by fluorescence cross-correlation spectroscopy” (Scientific Reports, 2026).
Substitutions are numbered along the chain they refer to. Names and notes keep the numbering of the source. Blank lines part the entries; values can stand above or below the binder they belong to.

Tests used:
Settings in all cases: partners not purified
[1] = biological target: T1, mCherry-RBBP8 (UniProt Q99708 1-897); assay: fluorescence cross-correlation spectroscopy (FCCS); GFP- and mCherry-tagged proteins co-expressed in live HeLa cells; focal volume in the nucleoplasm (MSH2-MSH6 also in the cytoplasm); room temperature; cross-correlation/autocorrelation ratio
T1 construct: also called mCherry-RBBP8/CtIP; CtIP; source: HeLa, transfected, in live cells and in lysate

[2] = biological target: T2, mCherry-BARD1 (UniProt Q99728 1-777); assay: fluorescence cross-correlation spectroscopy (FCCS); lysate of co-transfected HeLa cells; 20 mM Tris-HCl pH 7.5, 140 mM KCl, 1.5 mM MgCl2, 1 mM DTT, 0.5% NP-40; lysed at room temperature; cross-correlation/autocorrelation ratio
T2 construct: also called BRCA1 Associated RING Domain 1; source: HeLa, transfected, in live cells and in lysate
T2 sequence (looked up): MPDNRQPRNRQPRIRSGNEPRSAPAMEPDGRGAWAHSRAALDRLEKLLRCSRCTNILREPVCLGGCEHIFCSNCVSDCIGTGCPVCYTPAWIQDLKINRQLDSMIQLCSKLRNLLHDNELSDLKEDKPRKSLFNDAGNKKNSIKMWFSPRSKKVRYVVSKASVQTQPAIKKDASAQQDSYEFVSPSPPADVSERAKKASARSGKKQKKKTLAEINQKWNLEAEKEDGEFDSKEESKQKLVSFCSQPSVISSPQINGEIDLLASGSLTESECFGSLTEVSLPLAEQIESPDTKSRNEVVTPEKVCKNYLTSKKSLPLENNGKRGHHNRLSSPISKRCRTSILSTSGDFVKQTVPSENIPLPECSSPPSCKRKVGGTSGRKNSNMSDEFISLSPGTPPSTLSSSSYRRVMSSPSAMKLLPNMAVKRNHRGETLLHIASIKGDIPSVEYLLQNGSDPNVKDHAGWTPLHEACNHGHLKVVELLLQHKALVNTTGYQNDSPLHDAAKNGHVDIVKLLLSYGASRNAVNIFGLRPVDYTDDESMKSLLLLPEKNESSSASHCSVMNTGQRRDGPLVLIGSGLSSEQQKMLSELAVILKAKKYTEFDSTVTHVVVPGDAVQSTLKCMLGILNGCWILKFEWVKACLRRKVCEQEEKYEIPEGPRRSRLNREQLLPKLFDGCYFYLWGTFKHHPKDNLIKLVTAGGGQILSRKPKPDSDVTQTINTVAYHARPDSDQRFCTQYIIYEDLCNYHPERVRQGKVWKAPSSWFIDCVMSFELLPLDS

[3] = biological target: T1, mCherry-RBBP8; assay: as above
[4] = biological target: T3, mCherry-JUND (UniProt P17535 1-347); assay: as above
T3 construct: JUND; the construct is not described in the methods; also called JunD Proto-Oncogene; source: HeLa, transfected, in lysate
T3 sequence (looked up): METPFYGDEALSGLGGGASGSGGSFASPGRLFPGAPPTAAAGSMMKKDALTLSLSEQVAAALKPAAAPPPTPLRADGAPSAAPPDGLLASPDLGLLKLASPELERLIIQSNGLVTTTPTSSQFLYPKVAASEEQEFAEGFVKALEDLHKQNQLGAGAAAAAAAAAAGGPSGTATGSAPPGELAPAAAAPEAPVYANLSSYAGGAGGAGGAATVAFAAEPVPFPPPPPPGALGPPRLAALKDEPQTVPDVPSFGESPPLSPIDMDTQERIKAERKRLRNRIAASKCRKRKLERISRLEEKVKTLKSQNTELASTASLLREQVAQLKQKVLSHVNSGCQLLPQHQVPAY

T1 sequence (Q99708 whole entry): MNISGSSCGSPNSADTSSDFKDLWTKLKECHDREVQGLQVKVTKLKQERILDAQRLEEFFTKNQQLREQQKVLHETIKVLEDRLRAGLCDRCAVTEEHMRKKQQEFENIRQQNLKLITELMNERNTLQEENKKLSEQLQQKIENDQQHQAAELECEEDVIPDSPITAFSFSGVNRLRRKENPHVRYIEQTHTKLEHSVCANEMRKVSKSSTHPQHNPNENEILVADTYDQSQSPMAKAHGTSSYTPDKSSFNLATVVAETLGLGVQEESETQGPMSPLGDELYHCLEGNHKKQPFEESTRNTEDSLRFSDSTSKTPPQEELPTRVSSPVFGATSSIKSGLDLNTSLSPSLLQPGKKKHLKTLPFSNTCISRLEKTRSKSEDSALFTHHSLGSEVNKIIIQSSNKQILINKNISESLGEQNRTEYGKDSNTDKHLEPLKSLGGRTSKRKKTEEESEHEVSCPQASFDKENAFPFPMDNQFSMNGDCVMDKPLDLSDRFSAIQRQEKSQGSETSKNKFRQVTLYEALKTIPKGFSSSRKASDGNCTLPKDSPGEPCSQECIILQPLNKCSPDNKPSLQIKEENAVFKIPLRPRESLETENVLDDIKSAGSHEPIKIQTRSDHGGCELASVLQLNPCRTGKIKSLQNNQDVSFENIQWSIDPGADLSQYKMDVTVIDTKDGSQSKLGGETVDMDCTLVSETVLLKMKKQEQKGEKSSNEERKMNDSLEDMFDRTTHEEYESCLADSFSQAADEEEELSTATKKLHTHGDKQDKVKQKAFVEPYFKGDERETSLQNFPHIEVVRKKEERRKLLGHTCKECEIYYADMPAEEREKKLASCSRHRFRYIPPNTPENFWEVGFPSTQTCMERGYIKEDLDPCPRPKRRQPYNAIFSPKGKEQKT

B2: GFP-RING (isolated BRCA1 RING domain, wild-type) (domain or fragment, UniProt P38398 1-109, looked up)
chain: MDLSALRVEEVQNVINAMQKILECPICLELIKEPVSTKCDHIFCKFCMLKLLNQKKGPSQCPLCKNDITKRSLQESTRFSQLVEELLKIICAFQLDTGLEYANSYNFAK
notes: BRCA1 amino acids 1-109 cloned into pEGFP-C1; also called EGFP-tagged RING trimmed domain; wild-type RING; source: HeLa, transfected, in lysate
- cross-correlation [2]: 25%

B5: GFP-RING D67Y (domain or fragment, UniProt P38398 1-109, looked up)
chain: B2 chain with D67Y
notes: BRCA1 amino acids 1-109 with the variant; also called D67Y variant (isolated RING domain); source: HeLa, transfected, in lysate
- reduction in binding relative to wild type [2]: 22%

B7: GFP-Menin (natural protein, UniProt O00255 1-610, looked up)
chain: MGLKAAQKTLFPLRSIDDVVRLFAAELGREEPDLVLLSLVLGFVEHFLAVNRVIPTNVPELTFQPSPAPDPPGGLTYFPVADLSIIAALYARFTAQIRGAVDLSLYPREGGVSSRELVKKVSDVIWNSLSRSYFKDRAHIQSLFSFITGTKLDSSGVAFAVVGACQALGLRDVHLALSEDHAWVVFGPNGEQTAEVTWHGKGNEDRRGQTVNAGVAERSWLYLKGSYMRCDRKMEVAFMVCAINPSIDLHTDSLELLQLQQKLLWLLYDLGHLERYPMALGNLADLEELEPTPGRPDPLTLYHKGIASAKTYYRDEHIYPYMYLAGYHCRNRNVREALQAWADTATVIQDYNYCREDEEIYKEFFEVANDVIPNLLKEAASLLEAGEERPGEQSQGTQSQGSALQDPECFAHLLRFYDGICKWEEGSPTPVLHVGWATFLVQSLGRFEGQVRQKVRIVSREAEAAEAEEPWGEEAREGRRRGPRRESKPEEPPPPKKPALDKGLGTGQGAVSGPPRKPPGTVAGTARGPEGGSTAQVPAPTASPPPEGPVLTFQSEKMKGMKELLVATKINSSAIKLQLTAQSQVQMKKQKVSTPSDYTLSFLKRQRKGL
notes: Menin (MEN1); the construct and its isoform are not described in the methods; also called MEN1 factor Menin; source: HeLa, transfected, in lysate
- cross-correlation [4]: 21%

B8: GFP-Menin A237V (natural protein, UniProt O00255 1-610, looked up)
chain: B7 chain with A237V
notes: Menin (MEN1) with the variant; construct and isoform not described; source: HeLa, transfected, in lysate
- binding relative to wild type [4]: ~50%

B9: GFP-Menin A242V (natural protein, UniProt O00255 1-610, looked up)
chain: B7 chain with A242V
notes: as for B8
- binding relative to wild type [4]: ~50%

The remaining lines, values ahead:

- reduction in binding relative to wild type [1]: ~50%
B1: GFP-BRCA1 p.Thr1684Ala (natural protein, UniProt P38398 1-1863, looked up)
chain: MDLSALRVEEVQNVINAMQKILECPICLELIKEPVSTKCDHIFCKFCMLKLLNQKKGPSQCPLCKNDITKRSLQESTRFSQLVEELLKIICAFQLDTGLEYANSYNFAKKENNSPEHLKDEVSIIQSMGYRNRAKRLLQSEPENPSLQETSLSVQLSNLGTVRTLRTKQRIQPQKTSVYIELGSDSSEDTVNKATYCSVGDQELLQITPQGTRDEISLDSAKKAACEFSETDVTNTEHHQPSNNDLNTTEKRAAERHPEKYQGSSVSNLHVEPCGTNTHASSLQHENSSLLLTKDRMNVEKAEFCNKSKQPGLARSQHNRWAGSKETCNDRRTPSTEKKVDLNADPLCERKEWNKQKLPCSENPRDTEDVPWITLNSSIQKVNEWFSRSDELLGSDDSHDGESESNAKVADVLDVLNEVDEYSGSSEKIDLLASDPHEALICKSERVHSKSVESNIEDKIFGKTYRKKASLPNLSHVTENLIIGAFVTEPQIIQERPLTNKLKRKRRPTSGLHPEDFIKKADLAVQKTPEMINQGTNQTEQNGQVMNITNSGHENKTKGDSIQNEKNPNPIESLEKESAFKTKAEPISSSISNMELELNIHNSKAPKKNRLRRKSSTRHIHALELVVSRNLSPPNCTELQIDSCSSSEEIKKKKYNQMPVRHSRNLQLMEGKEPATGAKKSNKPNEQTSKRHDSDTFPELKLTNAPGSFTKCSNTSELKEFVNPSLPREEKEEKLETVKVSNNAEDPKDLMLSGERVLQTERSVESSSISLVPGTDYGTQESISLLEVSTLGKAKTEPNKCVSQCAAFENPKGLIHGCSKDNRNDTEGFKYPLGHEVNHSRETSIEMEESELDAQYLQNTFKVSKRQSFAPFSNPGNAEEECATFSAHSGSLKKQSPKVTFECEQKEENQGKNESNIKPVQTVNITAGFPVVGQKDKPVDNAKCSIKGGSRFCLSSQFRGNETGLITPNKHGLLQNPYRIPPLFPIKSFVKTKCKKNLLEENFEEHSMSPEREMGNENIPSTVSTISRNNIRENVFKEASSSNINEVGSSTNEVGSSINEIGSSDENIQAELGRNRGPKLNAMLRLGVLQPEVYKQSLPGSNCKHPEIKKQEYEEVVQTVNTDFSPYLISDNLEQPMGSSHASQVCSETPDDLLDDGEIKEDTSFAENDIKESSAVFSKSVQKGELSRSPSPFTHTHLAQGYRRGAKKLESSEENLSSEDEELPCFQHLLFGKVNNIPSQSTRHSTVATECLSKNTEENLLSLKNSLNDCSNQVILAKASQEHHLSEETKCSASLFSSQCSELEDLTANTNTQDPFLIGSSKQMRHQSESQGVGLSDKELVSDDEERGTGLEENNQEEQSMDSNLGEAASGCESETSVSEDCSGLSSQSDILTTQQRDTMQHNLIKLQQEMAELEAVLEQHGSQPSNSYPSIISDSSALEDLRNPEQSTSEKAVLTSQKSSEYPISQNPEGLSADKFEVSADSSTSKNKEPGVERSSPSKCPSLDDRWYMHSCSGSLQNRNYPSQEELIKVVDVEEQQLEESGPHDLTETSYLPRQDLEGTPYLESGISLFSDDPESDPSEDRAPESARVGNIPSSTSALKVPQLKVAESAQSPAAAHTTDTAGYNAMEESVSREKPELTASTERVNKRMSMVVSGLTPEEFMLVYKFARKHHITLTNLITEEATHVVMKTDAEFVCERTLKYFLGIAGGKWVVSYFWVTQSIKERKMLNEHDFEVRGDVVNGRNHQGPKRARESQDRKIFRGLEICCYGPFTNMPTDQLEWMVQLCGASVVKELSSFTLGTGVHPIVVVQPDAWTEDNGFHAIGQMCEAPVVTREWVLDSVALYQCQELDTYLIPQIPHSHY
notes: also called T1684A; source: HeLa, transfected, in live cells

- reduction in binding relative to wild type [2]: 20%
B3: GFP-RING-T37K (domain or fragment, UniProt P38398 1-109, looked up)
chain: B2 chain with T37K
notes: BRCA1 amino acids 1-109 with the variant; source: HeLa, transfected, in lysate

- reduction in binding relative to wild type [2]: 30%
B4: GFP-RING-T37R (domain or fragment, UniProt P38398 1-109, looked up)
chain: B2 chain with T37R
notes: BRCA1 amino acids 1-109 with the variant; also called p.Thr37Arg; source: HeLa, transfected, in lysate

- cross-correlation [3]: 17%
B6: GFP-BRCT (isolated BRCA1 BRCT domain, wild-type) (domain or fragment, UniProt P38398 1650-1863, looked up)
chain: MSMVVSGLTPEEFMLVYKFARKHHITLTNLITEETTHVVMKTDAEFVCERTLKYFLGIAGGKWVVSYFWVTQSIKERKMLNEHDFEVRGDVVNGRNHQGPKRARESQDRKIFRGLEICCYGPFTNMPTDQLEWMVQLCGASVVKELSSFTLGTGVHPIVVVQPDAWTEDNGFHAIGQMCEAPVVTREWVLDSVALYQCQELDTYLIPQIPHSHY
notes: BRCA1 amino acids 1650-1864 cloned into pEGFP-C1; the printed limit 1864 may count the stop codon; also called EGFP-tagged BRCT trimmed domain; source: HeLa, transfected, in lysate
